Series [1] has as its target HB-EGF (Homo sapiens, UniProt Q99075). The experiment in a line: Inhibition of binding of 125I-labeled diphtheria toxin to HB-EGF.
Series [2] has as its system Vero cells.

One substance from patent publication US8507443B2, “Anticancer agent” (The Research Foundation for Microbial Diseases of Osaka …, priority 2005, dated 2013) can be followed below.

HB-EGF, sequence (Q99075 63-148): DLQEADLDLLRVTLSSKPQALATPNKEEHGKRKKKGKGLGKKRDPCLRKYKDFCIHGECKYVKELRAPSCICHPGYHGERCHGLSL

Take GST-DT: in series [1], the “activity to inhibit the binding of HB-EGF to EGFR” value is “inhibit the binding of HB-EGF to EGFR” and the “inhibition of the binding of 125I-labeled diphtheria toxin to HB-EGF” value is listed as “in a dose dependent manner”. In series [2], the “toxicity of diphtheria toxin” value is recorded as “do not have the toxicity of diphtheria toxin substantially”.
